Test results taken from patent publication US20130089544A1 (AstraZeneca / MedImmune, published 2013).

How the values were obtained:
[1] = target: T1, human ErbB2, full length, on cells (human, UniProt P04626 23-1255); experiment: cell-based or functional assay
[2] = target: T1, human ErbB2, full length, on cells; experiment: cell-based or functional assay; remark: listed apart in the source
[3] = target: T1, human ErbB2, full length, on cells; experiment: cell-based or functional assay; remark: listed apart in the source
[4] = target: T1, human ErbB2, full length, on cells; experiment: cell-based or functional assay; remark: listed apart in the source
[5] = target: T2, human ErbB2 ECD-myc/His fusion protein (human, UniProt P04626 23-652); experiment: SPR, Biacore T100 high resolution; mAb captured on goat anti-human IgG, hHer-2(ECD)cMyc injected; 1:1 fit
T2 construct: Made in-house in 293T cells; also called hErbB2(ECD)/cMyc-His; huErbB2 (ECD)/c-myc-His; not shown: c-myc/His tag of the pSecTag2Hygro vector
Method: All experiments were performed using a Biacore T100 instrument. First, a high-density goat α human IgG antibody (Caltag H10500) surface was prepared over two CM5 Biacore chips using routine amine coupling. Each mAb was diluted in HBS-P running buffer containing 100 μg/ml Bovine serum albumin (BSA).
A capture level protocol was developed for all five mAbs. Before each antigen injection cycle, each mAb was captured for 15 to 30 seconds at a 20 μL/min flow rate. A 5-minute wash step followed each capture injection to stabilize each mAb baseline. […] The samples were prepared in the running buffer described above. All samples were randomly injected with several mAb capture/buffer inject cycles interspersed for double referencing. […] A flow rate of 50 μL/min. was used for all injection cycles.
All sensorgram data were fit to a 1:1 interaction model using CLAMP.

[6] = target: T1, human ErbB2, full length, on cells; experiment: cell-based or functional assay; remark: listed apart in the source
[7] = target: T2, human ErbB2 ECD-myc/His fusion protein; experiment: SPR, Biacore 2000 medium resolution; mAb captured on goat anti-human IgG, ErbB2(ECD)-cMyc/His injected; 1:1 fit
Method: The binding affinity of eight of the anti-ErbB2 antibodies was measured by medium resolution Biacore. All experiments were performed using a Biacore 2000 instrument.
First, 12 high-density goat α-human IgG antibody surfaces over three CM5 Biacore chips were prepared using routine amine coupling. […] Before each antigen injection cycle, each mAb was captured for six to nine seconds at a 100 μL/min flow rate. A 2-minute wash step followed each capture injection to stabilize each mAb baseline. […] All samples were randomly injected with several mAb capture/buffer inject cycles interspersed for double referencing. […] A flow rate of 100 μL/min. was used for all injection cycles. The data was fit to a 1:1 interaction model using CLAMP.

[8] = target: T1, human ErbB2, full length, on cells; experiment: cell-based or functional assay; remark: listed apart in the source
[9] = target: T2, human ErbB2 ECD-myc/His fusion protein; experiment: limited antigen ELISA, 31 ng/ml ErbB2 ECD-myc/His coated, supernatant 1:25
Method: […] […] Antigen-coated plates were washed three times, blocked with 1% non-fat skim milk/PBS for at least 30 minutes at room temperature, and then washed again three times. Each hybridoma line sample was titrated in 1% non-fat skim-milk/PBS 1:3 for 7 points starting from a 1:25 dilution. […] The next day, plates were washed three times and incubated with 50 μl of 400 ng/ml immunopure Goat anti-human IgG (Fc)-HRP (Pierce catalog #31416) for 1 hour at room temperature. Then, the plates were extensively washed and pat dried on paper towel to remove residual HRP in wells. HRP substrate TMB (enhanced K-blue TMB, Neogen catalog #308177) was added to each well and incubated for 30 min. The reaction was stopped by addition of 1N HCl. Optical density at 450 nm was read on a microplate reader (Titerteck Multiskan Ascent).

B1: monoclonal antibody 1.96 (antibody, V domains shown)
VH: EVQLVESGGGLVKPGGSLRLSCAASGFTFSSYSMNWVRQAPGKGLEWVSSISSSSSYIYYADSVKGRFTISRDNAKNSLYLQMNSLRAEDTAVYYCARGGDGYNYYYFDYWGQGTLVTVSS
VL: DIVMTQSPDSLAVSLGERATITCKSSQSVFFRSNNKNCLAWYQQRPGQPPNLLFYWASTRESGVPDRFSGSGSGTDFTLTISSLQAEDVAVYYCQQYFGSPFTLGPGTKVDIK
notes: Fully human IgG (gamma/kappa) from a XenoMouse XM3B-3 hybridoma; constant regions not tied to it
% inhibition @36 µg/ml, SKBR3 cell proliferation [1]: 43% | EC50 (ng/ml), inhibition of SKBR3 cell proliferation [1]: 41.7 ng/mL | % Inhibition @10 µg/ml, Heregulin-induced MCF7 cell proliferation [2]: 98% | EC50 (ng/ml), inhibition of Heregulin-induced MCF7 cell proliferation [2]: 2830 ng/mL | N1 % Inhibition @40 µg/ml, BT474 cell proliferation [3]: 35% | N1 EC50 (ng/ml), inhibition of BT474 cell proliferation [3]: 131 ng/mL | N2 % Inhibition @40 µg/ml, BT474 cell proliferation [3]: 29% | N2 EC50 (ng/ml), inhibition of BT474 cell proliferation [3]: 66.3 ng/mL | % Inhibition @10 µg/ml (n1), ErbB2 phosphorylation in BT474 cells at 48 hours [4]: 37% | % Inhibition @10 µg/ml (n2), ErbB2 phosphorylation in BT474 cells at 48 hours [4]: 30% | Kd [5]: 11.6 nM | koff [5]: 0.000194 s⁻¹ | kon [5]: 16800 M⁻¹ s⁻¹ | EC50 (ng/ml) n1, inhibition of Heregulin-induced ErbB2 phosphorylation in MCF7 cells [6]: 28.8 ng/mL | EC50 (ng/ml) n2, inhibition of Heregulin-induced ErbB2 phosphorylation in MCF7 cells [6]: 34 ng/mL | Kd [7]: 2.6 nM | koff [7]: 0.000273 s⁻¹ | kon [7]: 103000 M⁻¹ s⁻¹

B2: monoclonal antibody 1.20 (antibody, V domains shown)
VH: EVQLVESGGGLVKPGGSLRLSCAASGFTFSSYTMNWVRQAPGKGLEWVSSISSSSSYIYYADSVKGRFTISRDNAKNSLYLQMNSLSAEDTAVYSCARGGDGYNYYYFDYWGQGTLVTVSS
VL: DIVMTQSPGSLVVSLGERATITCKSSQSVFFRSNNKNCLAWYQQRPGQSPNLLIYWASTRESGVPDRFSGSGSGTDFTLTISSLQAEDVAVYYCQQYFGSPFTFGPGTKVDIK
notes: Fully human IgG (gamma/kappa) from a XenoMouse XM3B-3 hybridoma; constant regions not tied to it; also called 1.20.1; 1.19
% inhibition @36 µg/ml, SKBR3 cell proliferation [1]: 49% | EC50 (ng/ml), inhibition of SKBR3 cell proliferation [1]: 25.2 ng/mL | % Inhibition @10 µg/ml, Heregulin-induced MCF7 cell proliferation [2]: 100% | EC50 (ng/ml), inhibition of Heregulin-induced MCF7 cell proliferation [2]: 770 ng/mL | N1 % Inhibition @40 µg/ml, BT474 cell proliferation [3]: 40% | N1 EC50 (ng/ml), inhibition of BT474 cell proliferation [3]: 85.3 ng/mL | N2 % Inhibition @40 µg/ml, BT474 cell proliferation [3]: 37% | N2 EC50 (ng/ml), inhibition of BT474 cell proliferation [3]: 12.8 ng/mL | % Inhibition @10 µg/ml (n1), ErbB2 phosphorylation in BT474 cells at 48 hours [4]: 21% | % Inhibition @10 µg/ml (n2), ErbB2 phosphorylation in BT474 cells at 48 hours [4]: 28% | EC50 (ng/ml) n1, inhibition of Heregulin-induced ErbB2 phosphorylation in MCF7 cells [6]: 15.5 ng/mL | EC50 (ng/ml) n2, inhibition of Heregulin-induced ErbB2 phosphorylation in MCF7 cells [6]: 17.4 ng/mL | 1 hr pTyr inhibition % (Heregulin-induced ErbB2 phosphorylation in MCF7 cells, hybridoma supernatant) [8]: 91% | 24 hr pTyr inhibition % (Heregulin-induced ErbB2 phosphorylation in MCF7 cells, hybridoma supernatant) [8]: 96% | Kd [7]: 3.6 nM | koff [7]: 0.000344 s⁻¹ | kon [7]: 95000 M⁻¹ s⁻¹

B3: monoclonal antibody 1.24 (antibody, V domains shown)
VH: EVQLVESGGGLVKPGGSLRLSCAASGFTFSSYSMNWVRQAPGKGLEWVSSISSSSSYIYYADSVKGRFTISRDNAKNSLYLQMNSLRAEDTAVYYCARGGDGYNYYYFDYWGQGTLVTVSS
VL: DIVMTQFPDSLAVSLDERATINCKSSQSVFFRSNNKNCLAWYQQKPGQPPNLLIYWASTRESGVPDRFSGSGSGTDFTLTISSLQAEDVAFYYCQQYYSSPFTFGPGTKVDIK
notes: Fully human IgG (gamma/kappa) from a XenoMouse XM3B-3 hybridoma; constant regions not tied to it; also called 1.24.3
% inhibition @36 µg/ml, SKBR3 cell proliferation [1]: 37% | EC50 (ng/ml), inhibition of SKBR3 cell proliferation [1]: 48.5 ng/mL | % Inhibition @10 µg/ml, Heregulin-induced MCF7 cell proliferation [2]: 81% | EC50 (ng/ml), inhibition of Heregulin-induced MCF7 cell proliferation [2]: 3020 ng/mL | N1 % Inhibition @40 µg/ml, BT474 cell proliferation [3]: 24% | N1 EC50 (ng/ml), inhibition of BT474 cell proliferation [3]: 198 ng/mL | N2 % Inhibition @40 µg/ml, BT474 cell proliferation [3]: 29% | N2 EC50 (ng/ml), inhibition of BT474 cell proliferation [3]: 74.4 ng/mL | LA at 31 ng/ml (OD) [9]: 2.35 OD 450 nm | EC50 (ng/ml) n1, inhibition of Heregulin-induced ErbB2 phosphorylation in MCF7 cells [6]: 42.9 ng/mL | EC50 (ng/ml) n2, inhibition of Heregulin-induced ErbB2 phosphorylation in MCF7 cells [6]: 20.4 ng/mL | 1 hr pTyr inhibition % (Heregulin-induced ErbB2 phosphorylation in MCF7 cells, hybridoma supernatant) [8]: 77% | 24 hr pTyr inhibition % (Heregulin-induced ErbB2 phosphorylation in MCF7 cells, hybridoma supernatant) [8]: 99% | Kd [7]: 5.1 nM | koff [7]: 0.000655 s⁻¹ | kon [7]: 128000 M⁻¹ s⁻¹

B4: monoclonal antibody 1.43 (antibody, V domains shown)
VH: EVQLVESGGGLVQPGGSLRLSCAASGFTFSSYWMHWVRQTPGKGLEWVANIKQDGSEKYYVDSVKGRFTISRDNAKNSLHLQMNSLRAEDTAAYYCASFRDYGMDVWGQGTTVTVSS
VL: DIQMTQSPSSLSASVGDRVTITCRASQGISNHLAWFQQKPGKAPKSLIYGASSLQTGVPSKFSGSGSGTDFTLTISSLQPEDFASYFCQQYKGYPITFGQGTRLEIK
% Inhibition @10 µg/ml, Heregulin-induced MCF7 cell proliferation [2]: 53% | EC50 (ng/ml), inhibition of Heregulin-induced MCF7 cell proliferation [2]: ~10000 ng/mL | EC50 (ng/ml) n1, inhibition of Heregulin-induced ErbB2 phosphorylation in MCF7 cells [6]: > 10000 ng/mL | EC50 (ng/ml) n2, inhibition of Heregulin-induced ErbB2 phosphorylation in MCF7 cells [6]: > 10000 ng/mL
